In paper PMC11239673, “Structural basis for the bi-specificity of USP25 and USP28 inhibitors” (EMBO Reports, 2024):
Values joined by “and” are separate entries in the source; they are usually repeats but may differ in a detail not shown here. Equal values may be shown once.

Tests used:
Conditions in all cases: remark: other sources report otherwise
[1] = target: T1, full-length USP25 (USP25 1-1055) (human), Q9UHP3; assay: SEC-MALS; tetramer to dimers; 20 µM USP25fl with 60 µM AZ1, 45 min incubation at 4 °C; Superose 6 10/300 GL; 20 mM HEPES pH 8.0, 150 mM NaCl, 1 mM TCEP
T1 chain: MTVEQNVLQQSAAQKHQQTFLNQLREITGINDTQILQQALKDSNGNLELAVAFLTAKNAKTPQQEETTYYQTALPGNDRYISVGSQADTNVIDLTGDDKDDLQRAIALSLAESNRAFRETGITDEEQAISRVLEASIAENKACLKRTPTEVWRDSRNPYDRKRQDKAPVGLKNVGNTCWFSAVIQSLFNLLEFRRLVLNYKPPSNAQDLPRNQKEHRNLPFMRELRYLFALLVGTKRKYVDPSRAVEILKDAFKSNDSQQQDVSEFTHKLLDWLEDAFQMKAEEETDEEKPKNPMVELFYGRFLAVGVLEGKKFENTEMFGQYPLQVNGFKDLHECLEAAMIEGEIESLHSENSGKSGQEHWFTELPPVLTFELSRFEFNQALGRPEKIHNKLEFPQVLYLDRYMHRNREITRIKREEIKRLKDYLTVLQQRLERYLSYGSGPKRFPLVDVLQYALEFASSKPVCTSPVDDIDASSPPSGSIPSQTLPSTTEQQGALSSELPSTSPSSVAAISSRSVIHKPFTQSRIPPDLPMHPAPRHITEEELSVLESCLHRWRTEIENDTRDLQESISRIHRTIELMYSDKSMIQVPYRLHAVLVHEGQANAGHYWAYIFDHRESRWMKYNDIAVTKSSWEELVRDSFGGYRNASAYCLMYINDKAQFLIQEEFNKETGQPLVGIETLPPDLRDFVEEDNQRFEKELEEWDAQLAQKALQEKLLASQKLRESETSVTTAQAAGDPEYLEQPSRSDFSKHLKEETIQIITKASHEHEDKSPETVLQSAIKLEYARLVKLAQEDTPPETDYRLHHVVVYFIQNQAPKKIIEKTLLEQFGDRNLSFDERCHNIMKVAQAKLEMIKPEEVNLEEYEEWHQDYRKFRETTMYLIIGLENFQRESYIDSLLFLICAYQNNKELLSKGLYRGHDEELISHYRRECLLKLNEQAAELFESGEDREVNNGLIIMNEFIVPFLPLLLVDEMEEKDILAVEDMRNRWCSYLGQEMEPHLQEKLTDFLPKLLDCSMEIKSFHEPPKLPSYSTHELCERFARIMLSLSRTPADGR

[2] = target: T1, full-length USP25 (USP25 1-1055) …; assay: SEC-MALS; tetramer to dimers; 20 µM USP25fl with 60 µM VSM, 45 min incubation at 4 °C; Superose 6 10/300 GL; 20 mM HEPES pH 8.0, 150 mM NaCl, 1 mM TCEP
[3] = target: T1, full-length USP25 (USP25 1-1055) …; assay: SEC-MALS; tetramer to dimers; 10 µM USP25fl with DMSO control, 45 min incubation at 4 °C; Superose 6 10/300 GL; 20 mM HEPES pH 8.0, 150 mM NaCl, 1 mM TCEP
[4] = target: T1, full-length USP25 (USP25 1-1055) …; assay: SEC-MALS; tetramer to dimers; 20 µM USP25fl with DMSO control, 45 min incubation at 4 °C; Superose 6 10/300 GL; 20 mM HEPES pH 8.0, 150 mM NaCl, 1 mM TCEP
[5] = target: T1, full-length USP25 (USP25 1-1055) …; assay: SEC-MALS; tetramer to dimers; 10 µM USP25fl with 5, 10 or 20 µM AZ1, 45 min incubation at 4 °C; Superose 6 10/300 GL; 20 mM HEPES pH 8.0, 150 mM NaCl, 1 mM TCEP
[6] = target: T1, full-length USP25 (USP25 1-1055) …; assay: SEC-MALS; tetramer to dimers; 20 µM USP25fl with 60 µM racemic FT206, 45 min incubation at 4 °C; Superose 6 10/300 GL; 20 mM HEPES pH 8.0, 150 mM NaCl, 1 mM TCEP
[7] = target: T1, full-length USP25 (USP25 1-1055) …; assay: SEC-MALS; tetramer to dimers; 10 µM USP25fl with 5, 10 or 20 µM racemic FT206, 45 min incubation at 4 °C; Superose 6 10/300 GL; 20 mM HEPES pH 8.0, 150 mM NaCl, 1 mM TCEP

B1: full-length USP25 (USP25 1-1055), Q9UHP3 1-1055 (enzyme)
chain: T1 chain
**Q.** For B1, which percent dimers (with 60 µM AZ1) [1] is on record?
**A.** 80.8%

**Q.** What about the percent dimers (with 60 µM VSM) [2] of the same binder?
**A.** 75%

**Q.** What about the percent dimers [3] of the same binder?
**A.** 25%

**Q.** And the percent dimers (DMSO control of the AZ1 series) [3]?
**A.** 23%

**Q.** What about the percent dimers (DMSO control of the FT206 series) [3] of the same binder?
**A.** 28%

**Q.** And the percent tetramers [3]?
**A.** 75%

**Q.** And the stoichiometry N [3]?
**A.** 4 and 2

**Q.** What about the percent dimers (DMSO control) [4] of the same binder?
**A.** 26.2%

**Q.** What about the percent dimers (with 20 µM AZ1) [5] of the same binder?
**A.** 46%

**Q.** What about the percent dimers (with 60 µM FT206) [6] of the same binder?
**A.** 77.7%

**Q.** What about the percent dimers (with 10 µM FT206) [7] of the same binder?
**A.** 50%

**Q.** What about the percent dimers (with 20 µM FT206) [7] of the same binder?
**A.** 76%
